Tested on: C6orf203 mature form (Homo sapiens)
Assay: EMSA
Conditions: 100 nM RNA, 0-2.56 uM protein; EMSA buffer, salt, pH and temperature not given (performed as previously described, ref 19); 100 nM fluorescein-labeled RNA; protein purified in 25 mM Tris-HCl …

mt-tRNAPro
Kd: 0.29 µM

Reference: article PMC6755124
